{"source": "patent US20260144239A1", "about": "“Immune Cell-Engrafted Non-Human Animals and Non-Human Animal Models” (LAPIX Therapeutics, Inc., priority 2022, published 2026)", "key": {"engrafted mice [1]": {"tested_on": "engrafted mice", "assay": "Human CD20 on B cells of engrafted mice that developed antibodies (flow cytometry)", "format": "in vivo, mouse", "conditions": "CD20+/CD19+ cells (FIGS. 9A-9C)", "text": "Presence of human CD20 was detected on B cells of mice that developed antibodies to different biologics. CD20 is expressed on activated, antibody-producing B cells."}, "C57B/6 control mice": {"tested_on": "C57B/6 control mice", "assay": "Immunogenicity in C57B/6 control mice, antibody titers by ELISA", "format": "in vivo, mouse", "experimental": "(§1) Three healthy human donors were used to generate three engrafted mice designated HD1, HD2 and HD3. On Day 29 and Day 36, HD1, HD2 and HD3 were administered FVIII. The same amounts of antigen were administered to three C57B/6 control mice on the same date. Two weeks later (on Day 43), blood from each mouse was collected. Titers of mouse anti-FVIII antibodies, human anti-FVIII antibodies, mouse anti-GAA antibodies and human anti-GAA antibodies were measured using ELISA (FIGS. 8A-8B).\nas §1, with “GAA.” for “FVIII.”, “anti-GAA” for “anti-FVIII”, “anti-FVIII” for “anti-GAA”, “8C-8D).” for “8A-8B).”\n(§2) Healthy human donors were used to generate eight engrafted mice. […] The same amount of antigen was administered to three C57B/6 control mice on the same date. Two weeks later (on Day 43), blood from each mouse was collected.\n(§3) Healthy human donors were used to generate 11 engrafted mice. […] The same amount of antigen was administered to three C57B/6 control mice on the same date. Two weeks later (on Day 43), blood from each mouse was collected."}, "humans": {"tested_on": "humans", "conditions": "in vivo; cited from earlier work"}, "engrafted mice [2]": {"tested_on": "engrafted mice", "assay": "Immunogenicity in engrafted mice (NRGS mice with human immune system), antibody titers by ELISA", "format": "in vivo, mouse", "experimental": "as §1\nas §1, with “GAA.” for “FVIII.”, “anti-GAA” for “anti-FVIII”, “anti-FVIII” for “anti-GAA”, “8C-8D).” for “8A-8B).”\nas §2, §3"}}}
{"substance": "GAA: biologic antigen administered to engrafted and C57B/6 mice; abbreviation not spelled out in the text", "values": [{"measurement": "CD20-expressing B cells after antigen exposure", "setting": "engrafted mice [1]", "value": "had CD20-expressing B cells"}, {"measurement": "mouse antibody titer to the antigen not administered (anti-FVIII after GAA, anti-GAA after FVIII)", "setting": "C57B/6 control mice; C57B/6 control mice", "value": "none"}, {"measurement": "human antibody titer to the antigen not administered (anti-FVIII after GAA, anti-GAA after FVIII)", "setting": "C57B/6 control mice; C57B/6 control mice, specificity control of titer assay", "value": "None"}, {"measurement": "percent of C57B/6 mice that developed mouse antibodies to the administered antigen", "setting": "C57B/6 control mice; six (FVIII), 5 (GAA), three (IFN-β), three (AAV9) C57B/6 mice", "value": 100, "unit": "%"}, {"measurement": "percent of C57B/6 mice that developed mouse antibodies to the administered antigen", "setting": "C57B/6 control mice; three C57B/6 mice, first experiment (FIG. 8B, 8D)", "value": 100, "unit": "%"}, {"measurement": "clinically reported immunogenicity rate in humans", "setting": "humans", "value": "89-100%"}, {"measurement": "percent of engrafted mice that developed human antibodies to the administered antigen", "setting": "engrafted mice [2]; 12 (FVIII), 14 (GAA), eight (IFN-β), 11 (AAV9) engrafted mice, antigen Day 29 and Day 36, blood Day 43, ELISA", "value": 100, "unit": "%"}, {"measurement": "engrafted mice that developed mouse antibodies to the administered antigen", "setting": "engrafted mice [2]; antigen Day 29 and Day 36, blood Day 43, ELISA", "value": "none"}, {"measurement": "mouse antibody titer to the antigen not administered (anti-FVIII after GAA, anti-GAA after FVIII)", "setting": "engrafted mice [2]; engrafted mice", "value": "none"}, {"measurement": "human antibody titer to the antigen not administered (anti-FVIII after GAA, anti-GAA after FVIII)", "setting": "engrafted mice [2]; engrafted mice, specificity control of titer assay", "value": "None"}, {"measurement": "engrafted mice that developed human antibodies to the administered antigen (number of mice)", "setting": "engrafted mice [2]; three engrafted mice (HD1, HD2, HD3), antigen on Day 29 and Day 36, blood on Day 43, ELISA", "value": "all three"}, {"measurement": "observed immunogenicity rate in the engrafted mice", "setting": "engrafted mice [2]; three engrafted mice, human antibodies to administered antigen, antigen Day 29 and Day 36, blood Day 43", "value": "about 100%"}]}
